{"source": "paper PMC3254782", "assay_in_all_cases": "immunoprecipitation and Western blot", "key": {"[1]": {"target": "amyloid-β (Aβ) in brain tissue of Tg2576 mice (human)"}, "[2]": {"target": "amyloid-β (Aβ) secreted by 7PA2 cells"}, "[3]": {"target": "amyloid-β (Aβ) secreted by mature Tg2576 primary cortical neurons (human)"}, "[4]": {"target": "amyloid-β (Aβ) secreted by mature Tg2576 primary cortical neurons (human)", "remark": "listed apart in the source"}}, "note": "Where two headings read alike, the source gives them in different places."}
{"substance": "amyloid-β (Aβ) in brain tissue of Tg2576 mice (peptide)", "values": [{"measurement": "stoichiometry N", "setting": "[1]", "result": 2}]}
{"substance": "amyloid-β (Aβ) secreted by 7PA2 cells (peptide)", "values": [{"measurement": "stoichiometry N", "setting": "[2]", "result": 2}]}
{"substance": "amyloid-β (Aβ) secreted by mature Tg2576 primary cortical neurons (peptide)", "values": [{"measurement": "stoichiometry N", "setting": "[3]", "result": 3}, {"measurement": "stoichiometry N", "setting": "[4]", "result": 2}]}
